Measured values: article PMC8546555, “Colicin-Mediated Transport of DNA through the Iron Transporter FepA” (mBio, 2021)

Molecular target: T1, FepA overexpressed from pBAD/Myc-HisB (E. coli, UniProt P05825 23-746)
T1 construct: FepA, outer membrane ferric enterobactin transporter of E. coli; source: E. coli BW25113 ΔFepA (JW5086-3) or BL21(DE3), pBAD/Myc-HisB, overexpressed; on live cells, or in a detergent-extracted OM protein fraction
T1 sequence: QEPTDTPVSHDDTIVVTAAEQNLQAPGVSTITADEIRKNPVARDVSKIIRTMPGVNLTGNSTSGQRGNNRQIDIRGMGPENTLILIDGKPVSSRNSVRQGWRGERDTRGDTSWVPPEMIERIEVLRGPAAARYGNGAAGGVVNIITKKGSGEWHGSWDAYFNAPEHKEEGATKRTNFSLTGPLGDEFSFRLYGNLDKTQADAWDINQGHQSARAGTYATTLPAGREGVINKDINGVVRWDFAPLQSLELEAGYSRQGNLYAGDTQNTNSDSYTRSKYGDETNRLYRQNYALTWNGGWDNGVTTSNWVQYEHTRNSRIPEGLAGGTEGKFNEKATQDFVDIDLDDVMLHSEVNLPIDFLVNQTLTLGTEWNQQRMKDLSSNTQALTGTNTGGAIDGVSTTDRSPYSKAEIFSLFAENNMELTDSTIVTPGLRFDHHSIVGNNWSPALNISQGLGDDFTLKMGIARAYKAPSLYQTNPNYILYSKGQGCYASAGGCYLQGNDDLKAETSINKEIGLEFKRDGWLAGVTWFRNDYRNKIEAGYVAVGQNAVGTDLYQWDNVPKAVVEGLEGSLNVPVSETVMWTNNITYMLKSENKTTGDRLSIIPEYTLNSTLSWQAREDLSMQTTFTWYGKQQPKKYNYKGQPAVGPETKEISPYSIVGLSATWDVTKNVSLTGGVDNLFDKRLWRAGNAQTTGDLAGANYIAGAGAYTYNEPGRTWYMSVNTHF
Experiment: native MS; 60 mg ColB-RT added to a 5-liter culture of BW25113(ΔFepA) cells overexpressing FepA; complex detergent extracted, purified by nickel affinity and size exclusion chromatography; 100 mM ammonium acetate, 1% β-OG, pH 6.9
Details: one partner purified

B1: ColB-RT (341 aa) (domain or fragment)
chain: MSDNEGSVPTEGIDYGDTMVVWPSTGRIPGGDVKPGGSSGLAPSMPPGWGDYSPQGIALVQSVLFPGIIRRIILDKELEEGDWSGWSVSVHSPWGNEKVSAARTVLENGLRGGLPEPSRPAAVSFARLEPASGNEQKIIRLMVTQQLEQVTDIPASQLPAAGNNVPVKYRLTDLMQNGTQYMAIIGGIPMTVPVVDAVPVPDRSRPGTNIKDVYSAPVSPNLPDLVLSVGQMNTPVRSNPEIQEDGVISETGNYVEAGYTMSSNNHDVIVRFPEGSGVSPLYISAVEILDSNSLSQRQEAENNAKDDFRVKKEQENDEKTVLTKTSEVIISVGDKVGEYLG
notes: not shown: His6, C-terminal, kept
  stoichiometry N: 1
